{
  "source": "paper PMC4083092",
  "key": {"[1]": {"biological_target": "CPEB1 ZZ domain (isolated) (Homo sapiens, UniProt Q9BZB8 503-566)", "experiment": "NMR titration"}, "[2]": {"biological_target": "T1, CPEB1 RRM12 (tandem RRMs) (Homo sapiens, UniProt Q9BZB8 285-355+361-514, internal_change)", "experiment": "NMR"}, "[3]": {"biological_target": "T1, CPEB1 RRM12 (tandem RRMs)", "experiment": "NMR titration and solution structure"}, "[4]": {"biological_target": "T1, CPEB1 RRM12 (tandem RRMs)", "experiment": "NMR titration"}, "[5]": {"biological_target": "T2, CPEB4 RRM12 (tandem RRMs) (Homo sapiens, UniProt Q17RY0-3 54-256)", "T2 sequence": "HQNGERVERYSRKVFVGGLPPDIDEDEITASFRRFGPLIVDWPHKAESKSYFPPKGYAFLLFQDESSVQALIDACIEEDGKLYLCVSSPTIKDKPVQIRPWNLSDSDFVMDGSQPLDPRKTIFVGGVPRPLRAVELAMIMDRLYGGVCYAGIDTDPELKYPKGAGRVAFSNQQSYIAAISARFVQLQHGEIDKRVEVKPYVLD", "experiment": "NMR titration"}},
  "data": [
    {"binder": "UUUUUAU (ssRNA)", "note": "[UUUUUAU (consensus CPE)]", "values": [
      {"measurement": "binding result", "setting": "[1]", "value": "no binding"}
    ]},
    {"binder": "CUUUA (ssRNA)", "values": [
      {"measurement": "binding result", "setting": "[2]", "value": "binds"}
    ]},
    {"binder": "UUUUA (ssRNA)", "values": [
      {"measurement": "binding result", "setting": "[3]", "value": "binds"}
    ]},
    {"binder": "UUUUAU (ssRNA)", "note": "[UUUUAU (consensus CPE)]", "values": [
      {"measurement": "binding result", "setting": "[4]", "value": "binds"},
      {"measurement": "binding result", "setting": "[5]", "value": "binds"}
    ]}
  ]
}
